Each block holds one binder with its values, some of them ahead of it. Where no end group is shown, it is not given here.
How the values were obtained:
[1] = biological target: T1, modified tritiated Substance P: [(3,4 3H) Pro2-Sar9-Met(O2)11]-Substance P, P20366
T1 chain: RPKPQQFFGLM

[2] = biological target: T2, SMR1-QHNPR (SMR1-Pentapeptide)
T2 chain: QHNPR

[3] = biological target: T3, rat Neutral EndoPeptidase 24-11 (NEP), membrane-bound, in rat tissue membrane preparations and fresh tissue … (rat, UniProt P07861 2-750); experiment: cell-based or functional assay
T3 sequence (looked up): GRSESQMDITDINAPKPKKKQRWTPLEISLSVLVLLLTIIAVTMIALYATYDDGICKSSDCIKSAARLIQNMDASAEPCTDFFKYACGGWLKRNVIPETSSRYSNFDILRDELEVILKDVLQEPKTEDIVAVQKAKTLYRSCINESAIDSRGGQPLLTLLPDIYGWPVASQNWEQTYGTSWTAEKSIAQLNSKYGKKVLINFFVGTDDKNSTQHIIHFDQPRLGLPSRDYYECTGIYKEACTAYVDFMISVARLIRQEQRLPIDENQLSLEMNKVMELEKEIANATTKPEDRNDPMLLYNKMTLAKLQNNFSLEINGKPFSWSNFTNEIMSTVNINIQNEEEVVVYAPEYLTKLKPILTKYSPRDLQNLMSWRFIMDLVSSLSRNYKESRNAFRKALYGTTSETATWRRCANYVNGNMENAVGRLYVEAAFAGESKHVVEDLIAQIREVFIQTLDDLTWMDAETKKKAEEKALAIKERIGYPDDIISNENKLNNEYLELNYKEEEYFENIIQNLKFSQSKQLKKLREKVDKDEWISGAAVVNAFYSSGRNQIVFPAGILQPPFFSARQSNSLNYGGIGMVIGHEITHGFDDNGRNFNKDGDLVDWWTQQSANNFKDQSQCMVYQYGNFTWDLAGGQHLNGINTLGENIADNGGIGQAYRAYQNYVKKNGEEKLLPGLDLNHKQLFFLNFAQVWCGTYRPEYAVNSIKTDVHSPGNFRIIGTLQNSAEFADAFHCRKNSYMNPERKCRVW

[4] = biological target: T4, purified rabbit renal NEP (rabbit, UniProt P08049 2-750, limits assumed); experiment: cell-based or functional assay
T4 sequence (looked up): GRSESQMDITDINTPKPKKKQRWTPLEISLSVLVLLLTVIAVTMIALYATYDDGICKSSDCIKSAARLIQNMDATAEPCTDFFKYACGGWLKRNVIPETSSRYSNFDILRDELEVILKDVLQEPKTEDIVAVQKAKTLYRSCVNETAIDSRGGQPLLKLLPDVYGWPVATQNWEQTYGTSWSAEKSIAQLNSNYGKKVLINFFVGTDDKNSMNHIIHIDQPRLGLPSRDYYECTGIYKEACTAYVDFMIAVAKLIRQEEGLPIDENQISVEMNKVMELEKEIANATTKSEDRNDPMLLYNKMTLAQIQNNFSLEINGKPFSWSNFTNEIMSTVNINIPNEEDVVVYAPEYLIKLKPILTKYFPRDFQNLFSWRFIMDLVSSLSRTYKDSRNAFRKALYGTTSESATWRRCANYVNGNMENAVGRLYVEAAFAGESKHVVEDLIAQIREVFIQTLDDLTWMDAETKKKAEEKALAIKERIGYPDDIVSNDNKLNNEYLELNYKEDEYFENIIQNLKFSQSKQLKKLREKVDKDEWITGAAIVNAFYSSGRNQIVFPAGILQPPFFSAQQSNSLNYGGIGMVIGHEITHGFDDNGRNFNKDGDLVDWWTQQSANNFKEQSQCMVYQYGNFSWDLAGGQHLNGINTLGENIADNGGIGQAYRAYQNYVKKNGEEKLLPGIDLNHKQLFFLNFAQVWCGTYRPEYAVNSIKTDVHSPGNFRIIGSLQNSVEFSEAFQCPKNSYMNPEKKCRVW

B1: purified rabbit renal NEP (protein)
chain: T4 sequence (looked up)
initial velocity of substance P hydrolysis by purified rabbit renal NEP (Vi) [1]: Vi=140 pM/min/µg enzyme

B2: rat Neutral EndoPeptidase 24-11 (NEP), membrane-bound, in rat tissue membrane preparations and fresh tissue slices (protein)
chain: T3 sequence (looked up)
fold rise of the apparent Km of the enzyme for substrate (substance P), rat renal membranes [2]: raising the apparent Km of the enzyme for substrate by 2-5 fold

IC50 (concentration of the inhibitor reducing by half the degradation of 3H-substance P) on rat spinal cord membrane preparations [3]: ~100 nM
IC50 of inhibition of 3H substance-P degradation by rat kidney membranes [3]: 500 to 1000 nM
inhibitory potency (IC50) with rat spinal NEP [3]: 400 nM
inhibitory potency (IC50) with purified rabbit renal NEP and synthetic specific fluorogenic substrate [4]: 600 nM
Binder: QHNPR (also: Gln form interconverts with pGlu form by N-terminal cyclization) [SMR1-QHNPR (SMR1-Pentapeptide)]
